Measured values from patent publication US20170343556A1 (VENTANA MEDICAL SYSTEMS, published 2017).

Biological target: T1, human PD-L1 (Programmed death ligand-1) (human, UniProt Q9NZQ7 19-290)
T1 construct: whole, on cells; Endogenous PD-L1 in fixed tissue sections, detected by immunohistochemistry; No recombinant construct was used; also called B7-H1; PDCD1L1
Experiment: immunohistochemistry on FFPE tissue sections, OptiView DAB detection
Procedure: VENTANA PD-L1 (SP263) is a rabbit monoclonal primary antibody which binds to PD-L1 in paraffin-embedded tissue sections. The specific antibody can be localized using a haptenated secondary antibody followed by a multimer anti-hapten-HRP conjugate (OptiView DAB IHC Detection Kit, Cat. No. 760-700). The specific antibody-enzyme complex is then visualized with a precipitating enzyme reaction product. Each step is incubated for a precise time and temperature. At the end of each incubation step, the VENTANA BENCHMARK automated slide stainer washes the sections to stop the reaction and to remove unbound material that would hinder the desired reaction in subsequent steps. It also applies LCS (Cat. No. 650-210/Cat. No. 650-010), which minimizes evaporation of the aqueous reagents from the specimen slide. In addition to staining with VENTANA PD-L1 (SP263), a second slide is stained with a rabbit monoclonal negative control Ig (Cat. No. 790-4795) to assess background staining. [0113] IB. Specimen Preparation

T1 sequence (Q9NZQ7 19-290): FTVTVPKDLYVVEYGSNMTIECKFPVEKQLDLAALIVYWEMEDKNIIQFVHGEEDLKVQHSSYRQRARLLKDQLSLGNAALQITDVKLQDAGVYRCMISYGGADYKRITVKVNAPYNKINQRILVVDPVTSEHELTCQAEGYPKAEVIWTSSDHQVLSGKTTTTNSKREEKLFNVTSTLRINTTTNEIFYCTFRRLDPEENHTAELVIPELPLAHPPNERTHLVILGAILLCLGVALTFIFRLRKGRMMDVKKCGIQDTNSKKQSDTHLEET

B1: VENTANA PD-L1 (SP263) Rabbit Monoclonal Antibody (antibody, V domains shown)
VH: QSLEESGGRLVTPGTPLTLTCTASGFSLSNHAISWVRQAPGKGLEWIGTINSDTHTYYATWPKGRFTISKTSSTTVDLKMTSPTTEDTATYFCARRIFSSSNIWGPGTLVTVSS
VL: AIVMTQTSSPVSAVVGGTVAINCQASQSIYNNNWLSWFQQKPGQPPKLLIYLASTLASGVPSRFKGSGSGTQFTLTISDVVCDDAATYYCIGGESSNNDGIAFGGGTEVVVK
notes: Rabbit monoclonal primary antibody with a kappa light chain; also called SP263 antibody; anti-PD-L1
B1: binds.
